Experiments:
[1] = target: T1, human IGF-1R (native, on cells) (human, UniProt P08069 31-1367); assay: cell-based or functional assay
[2] = target: T1, human IGF-1R (native, on cells); assay: FACS titration, MCF-7
Protocol: (§1) The binding properties of a series of anti-IGF-1R antibodies were evaluated by FACS analyses on the human MCF-7 breast adenocarcinoma cell line (ATCC#HTB-22) using increasing antibody concentrations. For that purpose, cells (1×10⁶ cells/ml) were incubated with anti-IGF-1R antibodies for 20 min. at 4° C. in FACS buffer (PBS, 0.1% BSA, 0.01% NaN₃). They were then washed 3 times and incubated with the appropriate secondary antibody coupled with Alexa 488 for 20 additional minutes at 4° C. in the dark before being washed 3 times in FACS buffer. The binding of anti-IGF-1R antibodies was immediately performed on viable cells which were identified using propidium iodide (that stains dead cells). The maximum of signal intensity obtained with each antibody was designed as Bₘₐₓ and expressed in mean of fluorescence intensity (MFI). The EC₅₀ of binding expressed in molarity (M) was calculated using a nonlinear regression analysis (GraphPad Prims 4.0).

[3] = target: T1, human IGF-1R (native, on cells); assay: cell-based or functional assay; remark: listed apart in the source
[4] = target: T2, monkey IGF-1R (on COS-7 cells) (African green monkey); assay: cell-based or functional assay
[5] = target: T1, human IGF-1R (native, on cells); assay: FACS titration, hIGF-1R transfected cells
Protocol: Briefly, increasing concentrations of chimeric mAbs were incubated with cells for 20 min at 4° C. in FACS buffer (PBS, 0.1% BSA, 0.01% NaN₃). Cells were then washed 3 times and incubated with the appropriate secondary antibody coupled with Alexa 488 before being incubated for 20 additional minutes at 4° C. in the dark and then washed 3 times in FACS buffer. The binding of anti-IGF-1R antibodies was immediately performed on viable cells which were identified using propidium iodide (that stains dead cells). The binding EC₅₀ expressed in molarity (M) was calculated using a nonlinear regression analysis (GraphPad Prims 4.0).

[6] = target: T3, soluble recombinant Cynomolgus monkey IGF-1R with C-terminal 10-His tag (produced in house) (Cynomolgus monkey); assay: SPR, common fit of the human and cynomolgus sensorgrams
T3 construct: extracellular domain; also called Cynomolgus IGF-1R ECD; Macaca IGF-1R
Protocol: (§2) The recognition experiments were run on a Biacore X100 device using a CM5 sensor chip activated by an anti-Tag His antibody (His capture kit GE Healthcare catalogue number 28-9950-56). More than 11000 RU of antibodies are chemically grafted on the carboxymethyldextan matrix using the amine kit chemistry. The experiments were carried out at 25° C. with a flow rate of 30 μl/min using the HBS-EP buffer (GE Healthcare) as the running and sample dilution buffer.
(§3) Solution of a second antibody is either injected in the same conditions on both flowcells or only on the second flowcell. […] At the end of the fifth injection the running buffer was passed in order to define the dissociation rate. The surface was then regenerated with an injection of a 10 mM Glycine, HCl pH 1.5 buffer during 30s.
(§4) The resulting sensorgrams were analysed using the Biaevaluation software with a 1:1 model. […] The quality of the fitting was assessed by a Chi2/Rmax ratio lower than 0.05 RU.

[7] = target: T1, human IGF-1R (native, on cells); assay: FACS on MCF-7 cells, 4°C; inset table, axis log [M]
Protocol: as §1

[8] = target: T2, monkey IGF-1R (on COS-7 cells); assay: FACS on COS-7 cells, 4°C; inset table, axis log [M]
Protocol: In order to evaluate the binding of anti-IGF-1R antibodies on monkey IGF-1R, the binding of both murine and chimeric anti-hIGF-1R antibodies was evaluated by FACS analyses on COS-7 cell line using increasing antibody concentrations. Cells (1×10⁶ cells/ml) were incubated with anti-IGF-1R antibodies for 20 minutes at 4° C. in FACS buffer (PBS, 0.1% BSA, 0.01% NaN₃). Then, cells were washed 3 times and incubated with the appropriate secondary antibody coupled with Alexa 488 before being incubated for 20 additional minutes at 4° C. in the dark and finally washed 3 times in FACS buffer. The binding of anti-IGF-1R antibodies was immediately evaluated on viable cells identified using propidium iodide (that stains dead cells). The binding EC₅₀ expressed in molarity (M) was calculated using a nonlinear regression analysis (GraphPad Prims 4.0).

[9] = target: T3, soluble recombinant Cynomolgus monkey …; assay: SPR Biacore X100, single cycle kinetics, His-captured IGF-1R ~160 RU, 1:1 model
Protocol: as §2, §3, §4

[10] = target: T4, chimerical h/m IGF-1R construct C2 (human/mouse chimera, UniProt Q60751 31-937 (mouse entry)); assay: SPR (Biacore X100), ratio of IGF-1R binding level to c208F2 capture level, supernatants diluted 10 times
T4 construct: soluble form, supernatant

[11] = target: T5, chimerical h/m IGF-1R construct C7 (human/mouse chimera, UniProt P08069 31-932, limits assumed); assay: as above
T5 construct: 17 mouse specific residues

T4 sequence (Q60751 other isoform, or with tags, fused parts or gaps mutant limits assumed): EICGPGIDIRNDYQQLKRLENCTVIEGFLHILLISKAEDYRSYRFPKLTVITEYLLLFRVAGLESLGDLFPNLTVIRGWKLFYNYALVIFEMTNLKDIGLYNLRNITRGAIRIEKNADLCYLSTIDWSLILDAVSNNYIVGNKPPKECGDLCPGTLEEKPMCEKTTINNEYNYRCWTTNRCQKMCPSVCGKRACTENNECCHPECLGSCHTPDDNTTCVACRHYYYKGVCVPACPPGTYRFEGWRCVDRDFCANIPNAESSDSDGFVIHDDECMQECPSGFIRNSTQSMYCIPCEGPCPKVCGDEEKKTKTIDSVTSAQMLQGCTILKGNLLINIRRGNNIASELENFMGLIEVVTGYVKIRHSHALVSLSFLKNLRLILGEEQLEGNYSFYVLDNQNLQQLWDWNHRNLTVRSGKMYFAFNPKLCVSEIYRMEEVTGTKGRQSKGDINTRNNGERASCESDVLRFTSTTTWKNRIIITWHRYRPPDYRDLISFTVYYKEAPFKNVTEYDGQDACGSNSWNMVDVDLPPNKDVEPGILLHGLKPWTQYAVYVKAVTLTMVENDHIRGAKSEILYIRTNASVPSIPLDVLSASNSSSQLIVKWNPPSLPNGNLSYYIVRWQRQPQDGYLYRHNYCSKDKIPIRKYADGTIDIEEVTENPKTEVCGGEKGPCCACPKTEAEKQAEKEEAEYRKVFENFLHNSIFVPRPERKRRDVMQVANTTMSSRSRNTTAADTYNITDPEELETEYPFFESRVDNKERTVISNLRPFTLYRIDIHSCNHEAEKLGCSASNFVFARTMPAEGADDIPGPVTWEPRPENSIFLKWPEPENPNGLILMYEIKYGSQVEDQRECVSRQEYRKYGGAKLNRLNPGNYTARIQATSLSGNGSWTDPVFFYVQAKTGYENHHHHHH

B1: c208F2 (antibody, human IgG1, kappa, V domains shown)
VH: QVQLQQSGPELVKPGASVKMSCKASGYTFTSYYIYWVKQRPGQGLEWLGWIWPGDGSTKYNEKFKDKTTLTADKSSNTAYMFLSSLTSEDSAVYFCASPMITPNYAMDYWGQGASVTVSS
VL: DIQMTQTTSSLSASLGDRVTISCRASQDISKYLNWYQQQPDGTIKLLIYYTSRLHSGVPSRFSGRGSGTDYSLTISNVEQEDIATYFCQQGSTLPYTFGGGTKLEIKR
notes: group G2; also called chimeric 208F2
In the case of B1, the “hIGF-1R phosphorylation, % of that induced by IGF-1 (MCF-7, Ab 10 µg/ml)” value [1] is reported as less than 20%, the Bmax [2] is reported as 981 MFI and the EC50 [2] is reported as 0.67 nM. For the same binder, the “% Internalization (MCF-7, 10 µg/ml, 4 h)” value [3] was 83%, the ΔMFI [3] was 288 MFI and the “% internalisation” value [4] was 67%. The ΔMFI [4] was 52 MFI, the Bmax [5] was 2010 MFI and the EC50 [5] was 0.32 nM. The Kd [6] was 0.22 nM, the EC50 [7] was 0.532 nM and the EC50 [8] was 0.657 nM. The Kd [9] was 0.17 nM, the binding result [10] was “no binding” and the binding result [11] was “binds”.

Reference: US20170267766A1 (PIERRE FABRE MEDICAMENT, published 2017)
